Results from the supplement of paper PMC9732359.
± gives the uncertainty stated by the source.

Assay: protein stability index of a GFP-peptide fusion (yeast GPS) (PSI 1-4); higher = more stable; sorted into four equal gates, so the index is relative within each strain
Conditions: doa10∆
Outline: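 The protein stability index of a peptide was calculated by multiplying its read frequency in each gate by that gate's number and adding the products. The peptides were tiled 17-residue stretches of yeast proteins, fused downstream of GFP on a Cherry-expressing plasmid and carried in yeast as a pooled library. Mid-log cultures in leucine-free medium were sorted into four equal gates by GFP/Cherry ratio, and each gate's plasmids were PCR-amplified and Illumina-sequenced.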

Sequence | protein stability index
PSHYPHPYEYEIDHQEY [RRP6] | 2.41 ± 0.055
PSKKRRRDFGAPANKRP [SMD1] | 2.57 ± 0.19
PSLRDRRERRLIFGTIA [RPT3] | 1.41 ± 0.08
PSQSEEQKGQMAKKEGT [MED4] | 3.21 ± 0.2
PSRRERRREQTTYSVDD [ISW2] | 2.65 ± 0.26
PSTGGVKKPHRYKPGTV [HHT1] | 1.59 ± 0.065
PSTNKKLSISNAASQQP [GAL11] | 2.48 ± 0.084
PSYAERQSSDESDNYRL [YML031W/NDC1] | 2.62 ± 0.049
PTATPSPFRPLEKTSRI [YMR153W/NUP53] | 2.89 ± 0.1
PTGPKTAIDKNGNITYS [FAS2] | 2.9 ± 0.061
PTKAAQRARDQDSIDIS [GAL11] | 3.21 ± 0.094
PTLFDLAFNYITYDKQE [SRP68] | 2.39 ± 0.064
PTLVRSVISGNLSLYEA [CSN12] | 2.92 ± 0.085
PTPSVKTEPVGTGLQSY [RPC53] | 3.4 ± 0.25
PTVDEQRQYKVQLLLHI [SNF11] | 1.8 ± 0.12
PVDITMMENYQNISPVY [PRP8] | 2.28 ± 0.049
PVEKVKEHDEIEEQGDA [DPB4] | 3.19 ± 0.095
PVIDTQIANEFNTQQGI [YDL116W/NUP84] | 2.77 ± 0.051
PVKSIRARLKGKEGRIR [RPO21] | 3.36 ± 0.091
PYCPIASITGTGSNDRC [YMR129W/POM152] | 1.96 ± 0.099
PYFEQKIQETELKIRSK [RPT6] | 2.71 ± 0.12
PYGSFHQQQLQQPHYIQ [DSN1] | 2.76 ± 0.063
PYKYRLREEIFIANEGV [RPL2A] | 2.88 ± 0.096
PYMNHKNTSSMDFLNSM [GAL11] | 1.87 ± 0.056
QAGVTKASVTIVFDNTD [SMC2] | 2.23 ± 0.071
QAPTELELQVAQAFVEL [RPS7A] | 2.53 ± 0.055

Sequence | protein stability index
QCIVYPNCLFILKLLNG [SOH1] | 1.3 ± 0.062
QDDDDYVDTATAKRKSR [IRR1] | 2.83 ± 0.061
QDDEYVKDWLYDSRPLE [PRP8] | 3.25 ± 0.16
QDEEQTEHLTELSDNEE [YCG1] | 3.29 ± 0.09
QDNHHITKVTENLFSKE [YMR129W/POM152] | 2.86 ± 0.059
QDPKTLVALLSRDLWCF [SSN2] | 1.39 ± 0.057
QDQYKEGIKVVDIDDPD [SNF2] | 2.97 ± 0.16
QDRLSDLIHKSEAFPSL [SMC4] | 3.31 ± 0.15
QDYYIIGANIYQSPTIF [MED6] | 2.33 ± 0.056
QEFFFHAMGGREGLIDT [RPO21] | 2.54 ± 0.081
QEHTIFTQLKKNIPKTR [SNU114] | 1.8 ± 0.045
QEKESQIQLAESELSLL [SMC4] | 2.81 ± 0.046
QENGTIFRGSLIGCIPY [YDL088C/ASM4] | 2.59 ± 0.052
QEQVQDYVNKTNSHLPA [FAS1] | 2.52 ± 0.069
QESFNSVQNLDQLLTDL [NUT1] | 3.22 ± 0.092
QFEKSRKVSGPRALQPS [RET1] | 2.98 ± 0.085
QFNKILPEPTEGFAADD [FAS1] | 2.79 ± 0.067
QFQRLAPSLTVPPIASP [PRE2] | 2.14 ± 0.053
QGDGLLTKLQKYGAAVR [RPN7] | 2.93 ± 0.17
QGIVRVYSKQATFLLTD [MCD1] | 1.97 ± 0.038
QGKHTKFENDELAESTT [LRP1] | 3.75 ± 0.23
QGNYVTEDIREGDQAEV [YMR129W/POM152] | 3.49 ± 0.086
QGRFRGNLSGKRVDFSG [RPO31] | 3.36 ± 0.099
QGRRLGESIMSEEPTDF [MCD1] | 3.21 ± 0.11
QGRRNSRNFSTRDEETT [SIR4] | 3.04 ± 0.064
QGVTCLHLAVGKKWFEV [NAS6] | 2.76 ± 0.23

Sequence | protein stability index
QHPFPLAHSQHRCAIRS [SSN2] | 1.76 ± 0.05
QHTSFQEAVNSLKGYKI [CSI1] | 3.15 ± 0.1
QIAAQSPVELSRMFEEV [SMC1] | 3.19 ± 0.14
QIDQLNRLLPNLPEEER [GRR1] | 2.62 ± 0.091
QIFVRGSQIKFIVVPDL [SMD3] | 1.8 ± 0.071
QIILAYIKYNILLTSIS [SRP68] | 1.29 ± 0.08
QIIVTDGKLEPSTRSNF [YJL039C/NUP192] | 2.38 ± 0.099
QIKTLPEQYSDILLNER [AAR2] | 2.96 ± 0.077
QIMQNPTHYKIPAWFLN [RPS18A] | 2.02 ± 0.072
QIQFTPLIKKIKYEPRF [SMC3] | 2.62 ± 0.061
QIQKNVDLLQFPWLNAI [POP3] | 2.29 ± 0.07
QIRACKDLKHIIYYKFN [PRP8] | 1.72 ± 0.037
QISLNRLIDSMKQYSYL [RRI1] | 2.43 ± 0.23
QITKFPKYRDNLATWYH [SSN3] | 2.77 ± 0.065
QKDKSDTYKRFKYLLGV [ISW2] | 1.59 ± 0.05
QKEEGRSFTKAIEDAKK [YLR335W/NUP2] | 3.1 ± 0.11
QKLLKQLDSDANKLSKS [ISW2] | 3.03 ± 0.048
QKVSQLESADKQLEKRD [POP4] | 3.26 ± 0.069
QKYNLLHVLPTLNSRAL [SNM1] | 1.45 ± 0.084
QKYTKEMIDSHIKEASE [SNF2] | 2.93 ± 0.06
QLAPSSVDPQSSSTQNV [DIS3] | 2.99 ± 0.084
QLDGFSSDDRVKVLAAT [RPT5] | 2.88 ± 0.16
QLEEDENITNKVTEKVL [CSI1] | 3.2 ± 0.088
QLEKKIRFVCLSNCLAN [BRR2] | 1.82 ± 0.065
QLENADTGTLDTKSVVG [RPN2] | 3.09 ± 0.087
QLESIYFRILLPYERHM [SWI1] | 1.88 ± 0.055

Sequence | protein stability index
QLESYEYMVQYIDEMYN [RRI1] | 2.74 ± 0.052
QLGLQTVIRGNSIISLE [SMX2] | 2.22 ± 0.093
QLHFSLLDEEAEQSFDQ [RPO21] | 2.51 ± 0.11
QLIAKNVANVSGSTEKA [SIR3] | 3.03 ± 0.085
QLIPIILRQRGPGFKFV [SRB4] | 2.55 ± 0.11
QLISAVLVSMGSSNKAV [YJL039C/NUP192] | 1.47 ± 0.23
QLKHTKLALAENDTNMN [SMC4] | 3.13 ± 0.079
QLLTPGSKISSNDLDKF [YGL172W/NUP49] | 2.88 ± 0.19
QLPVGFKNMGNTCYLNA [UBP6] | 2.16 ± 0.073
QLQKILESLKPIDDTMT [MTW1] | 2.73 ± 0.072
QMEDMEESINEFKSIEI [SMC4] | 3.28 ± 0.13
QMIELNRQICLVQKTVQ [GRR1] | 3.03 ± 0.1
QNAAANAEAKGLDATKL [RPL17A] | 2.8 ± 0.28
QNFAEEDDSSNSCFSDG [REC8] | 2.56 ± 0.15
QNMQQSLQQMQHLQQLK [GAL11] | 2.96 ± 0.095
QNSSKIVNVLSKCLNLI [SWI3] | 2.21 ± 0.057
QNSYADKVTSQAVNNLI [RPP1] | 1.82 ± 0.047
QNVNVPSAFNFTGNNST [YOR098C/NUP1] | 2.56 ± 0.049
QPLFSTVPEYLKTADNR [PGD1] | 2.79 ± 0.088
QPQQSTIGGGLFGNKPT [YGR119C/NUP57] | 2.75 ± 0.087
QPSYNSAIIENAFRKEE [GAL11] | 2.86 ± 0.086
QPVNPKPFLKGLVNHRV [SMX3] | 3.07 ± 0.054
QQAQAQAQAQAQAQAQA [GAL11] | 2.78 ± 0.097
QQDQPEQSEQPEQHQDK [RPN10] | 3.04 ± 0.059
QQKANLLSSSNFEATKK [COR1] | 2.27 ± 0.069
